To fix the notation:
B1: E. coli MtlR fused with His6-tag (ecHisMtlR), wild type [E. coli] / E. coli histidine phosphocarrier protein HPr (dephosphorylated, untagged) [E. coli] (parent complex)
chain 1: MVDQAQDTLRPNNRLSDMQATMEQTQAFENRVLERLNAGKTVRSFLITAVELLTEAVNLLVLQVFRKDDYAVKYAVEPLLDGDGPLGDLSVRLKLIYGLGVINRQEYEDAELLMALREELNHDGNEYAFTDDEILGPFGELHCVAALPPPPQFEPADSSLYAMQIQRYQQAVRSTMVLSLTELISKISLKKAFQK
chain 2: not shown

Among the data in PMC6763467 (2019) are percent of parent values, retold here.

One assay covers variants of B1. Kind of assay: His-tag pull-down (Talon metal affinity chromatography), SDS-PAGE band densitometry; 200 μg His-MtlR, 200 μg HPr; 20 mM Tris-HCl (pH 7.5), 50 mM NaCl, 2 mM β-mercaptoethanol, 5% glycerol; wash 10 mM imidazole, elution 150 mM imidazole.
Take chain 1 L112W: the percent of parent came out at 95%.
For the variant chain 1 L112A, the percent of parent is 47%.
Still for that read-out and setting: with chain 1 A115W the figure was 45%; with chain 1 E140S, 67%.
As to chain 1 E108S, the percent of parent was found to be 76%.

In the next assay the parent is B1. Kind of assay: His-tag pull-down (Talon metal affinity resin), SDS-PAGE band densitometry; 200 μg His-MtlR, 200 μg HPr, 20 μl EI-overproducing cell lysate, 2 mM MgCl2, 50 μl Talon resin; no PEP.
With chain 1 E108S, chain 1 E140S, the percent of parent came to 35%.
In the case of chain 1 E140S, the percent of parent worked out at 68%.
For chain 1 E108S, the percent of parent was 65%.
